Measurements: paper PMC10992505, “Customized exogenous ferredoxin functions as an efficient electron carrier” (Bioresources and Bioprocessing, 2021)

B1: Drosophila melanogaster Fdx2 (DmFdx2) (natural protein, UniProt Q8SZA8 30-152, looked up)
chain: STGLALKTKDVVNITFVRANGDKIKTSGKVGDSLLDVVVNNNVDLDGFGACEGTLTCSTCHLIFKTSDFEKLPDKPGDEELDMLDLAYELTDTSRLGCQITLSKDMEGLEVHVPSTINDARAA
notes: Drosophila melanogaster ferredoxin 2 (Fdx2), plant-type [2Fe-2S] ferredoxin; Carries a [2Fe-2S] cluster; Cloning into pET28a at NdeI would place the His6 tag at the N-terminus (surmised); also called free Fdx; plant-type Fdx; source: E. coli BL21(DE3), purified (Ni-NTA, Resource Q anion exchange)
B2: KshA, Rieske-type oxygenase of 3-ketosteroid-9-hydroxylase from Rhodococcus erythropolis (enzyme)
chain: MALGTGPLTTTDASTQSGAGEEIREIEAAAPPARFARGWHCLGLSNTYRDGQPHQIEAFGTSLVVFADSKGDIKILDAYCRHMGGNLAHGTVKGDSIACPFHDWRWGGNGKCTAIPYARRVPPLAKTRAWTTLEKNGQLFVWHDPQGNPPPAEVTIPDIEGFGSDEWSDWSWNTLTIEGSHCREIVDNVVDMAHFFYVHYSFPKYFKNIFEGHVASQYMESVGREDIISGTNYGDPNAVLRSDASYFGPSYMIDWIKSEANGQIIETVLINCHYPISNNAFVLQYGAMVKKLPGMDDESTAAMAAQFTEGVEMGFLQDVEIWKNKAPIDNPLLSEEDGPVYQLRRWYNQFYTDVENVTEDMTKRFEFEIDTTRAVESWKREVAENVAARDAQALETTS

Tests used:
[1] = biological target: T1, PRF (CYP116B46 reductase domain, V465-L779) (Tepidiphilus thermophilus, UniProt A0A0K6ITW2, C736H/C766H, form not given); test: NADH oxidation, absorbance […] nm; assay type: biochemical
T1 construct: gene Ga0061068_103196

[2] = test system: T2, TDO (TDO_R; toluene 2,3-dioxygenase reductase with TDO-Fdx); settings: electron acceptor not stated; MTDO, plant-type cluster; fusion numbering
T2 construct: gene todA

[3] = biological target: PRF, reductase domain and Fdx (V465-L779) of Tepidiphilus thermophilus self-sufficient P450 CYP116B46 (Tepidiphilus thermophilus); test: ITC; 0.2 mM DmFdx2 in the syringe, 2 uL injections into 0.02 mM KshA or PRF in the cell; 20 mM HEPES pH 7.4, 25 °C; one-site binding model
[4] = biological target: B2; test: as above; settings: both partners purified
[5] = biological target: B1; test: as above; settings: both partners purified
purified protein = substrate: NC(=O)C1=CN([C@@H]2O[C@H](COP(=O)(O)OP(=O)(O)OC[C@H]3O[C@@H](n4cnc5c(N)ncnc54)[C@H](O)[C@@H]3O)[C@@H](O)[C@H]2O)C=CC1; test: purified protein; assay type: biochemical, Tepidiphilus thermophilus

T1 sequence (A0A0K6ITW2 entry or part of it C736H/C766H, form open): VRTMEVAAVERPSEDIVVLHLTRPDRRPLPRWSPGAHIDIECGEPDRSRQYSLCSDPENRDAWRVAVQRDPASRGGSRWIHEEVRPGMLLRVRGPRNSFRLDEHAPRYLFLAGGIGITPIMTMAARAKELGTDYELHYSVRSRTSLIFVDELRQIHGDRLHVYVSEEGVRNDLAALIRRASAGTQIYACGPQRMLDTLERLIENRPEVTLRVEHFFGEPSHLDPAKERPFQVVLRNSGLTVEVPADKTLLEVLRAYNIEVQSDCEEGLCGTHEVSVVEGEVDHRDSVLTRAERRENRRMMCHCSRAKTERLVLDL

Molecule: NC(=O)C1=CN([C@@H]2O[C@H](COP(=O)(O)OP(=O)(O)OC[C@H]3O[C@@H](n4cnc5c(N)ncnc54)[C@H](O)[C@@H]3O)[C@@H](O)[C@H]2O)C=CC1 [NADH]
- Km [1]: 63.1 ± 2.37 µM
- Km [2]: 63.5 ± 2.95 µM

Molecule: B1
- Ka [3]: 1.5e+07 M⁻¹
- dH [3]: -1.91 kcal/mol
- stoichiometry N [3]: 0.75
- dH [4]: -1.43 ± 0.0311 kcal/mol
- stoichiometry N [4]: 0.4 ± 0.02

Molecule: B2
- Ka [5]: 2.1e+07 M⁻¹

B3: (Tepidiphilus thermophilus) (protein)
chain: VRTMEVAAVERPSEDIVVLHLTRPDRRPLPRWSPGAHIDIECGEPDRSRQYSLCSDPENRDAWRVAVQRDPASRGGSRWIHEEVRPGMLLRVRGPRNSFRLDEHAPRYLFLAGGIGITPIMTMAARAKELGTDYELHYSVRSRTSLIFVDELRQIHGDRLHVYVSEEGVRNDLAALIRRASAGTQIYACGPQRMLDTLERLIENRPEVTLRVEHFFGEPSHLDPAKERPFQVVLRNSGLTVEVPADKTLLEVLRAYNIEVQSDCEEGLCGTCEVSVVEGEVDHRDSVLTRAERRENRRMMCCCSRAKTERLVLDL
- Km (purified protein): 39.11 ± 1.49 µM
- kcat (purified protein): 66.43 ± 0.34 s⁻¹
- kcat/Km (purified protein): 1.7e+06 M⁻¹ s⁻¹
